Source: publication PMC5014727 (Structure (London, England : 1993), 2016)
“And” between values parts separate entries of the source, which are not always exact repeats. Equal values may be shown once. Values belong to the molecule of their own block, whether it stands above or below them.

B1: chemically ligated sRAGE (extracellular soluble RAGE, VC1 ligated to C2) (domain or fragment, UniProt Q15109 23-342, looked up)
chain: AQNITARIGEPLVLKCKGAPKKPPQRLEWKLNTGRTEAWKVLSPQGGGPWDSVARVLPNGSLFLPAVGIQDEGIFRCQAMNRNGKETKSNYRVRVYQIPGKPEIVDSASELTAGVPNKVGTCVSEGSYPAGTLSWHLDGKPLVPNEKGVSVKEQTRRHPETGLFTLQSELMVTPARGGDPRPTFSCSFSPGLPRHRALRTAPIQPRVWEPGCSAEVQLVVEPEGGAVAPGGTVTLTCEVPAQPSPQIHWMKDGVPLPLPPSPVLILPEIGPQDQGTYSCVATHSSHGPQESRAVSISIIEPGEEGPTAGSVGGSGLGTLA

Experiments:
sRAGE ECD (Homo sapiens) = sRAGE ECD (Homo sapiens) (UniProt Q15109); conditions: cited from earlier work
[1] = molecular target: full length RAGE fused with yellow fluorescence protein (human) (UniProt Q15109); test: FRET or BRET
cross-linking = molecular target: the molecule itself; test: cross-linking
15N NMR relaxation = molecular target: the molecule itself; test: 15N NMR relaxation
[2] = molecular target: B1; test: ELISA

Molecule: sRAGE ECD (from UniProt Q15109)
Kd (sRAGE ECD (Homo sapiens)): 100 µM

FRET efficiency (with Ca2+-S100B) [1]: 10%
FRET efficiency (without Ca2+-S100B) [1]: 8%
Molecule: ΔDAD-DIAPH1 fused with cyan fluorescent protein (from UniProt O60610 1-1272) (natural protein)

Molecule: B1
stoichiometry N (cross-linking): 2 and 3 and 4
Kd (15N NMR relaxation): 120 ± 12 µM

Kd [2]: 0.49 ± 0.043 µM
B2: Ca2+-S100B dimer (ligand)
chain: MSELEKAMVALIDVFHQYSGREGDKHKLKKSELKELINNELSHFLEEIKEQEVVDKVMETLDNDGDGECDFQEFMAFVAMVTTACHEFFEHE
